Laboratory results: patent US20200270310A1, “MAFG AS A POTENTIAL THERAPEUTIC TARGET TO RESTORE CHEMOSENSITIVITY IN PLATINUM-RESISTANT CANCER CELLS” (FUNDACÓIN PARA LA INVESTIGACIÓN BIOMÉDICA DEL HOSPITAL …, priority 2017, published 2020)

Key:
IMIM-PC2 cells = experiment: Viability to CDDP; assay type: cell-based, human
Source text: (§1) Fifteen human cancer cell lines were purchased from ATCC (Manassas, Va.) or ECACC (Sigma-Aldrich, Spain) and cultured as recommended. The CDDP-resistant variants A2780R and OVCAR3R were selected after a final exposure to […] cisplatin, respectively (Farma Ferrer, Spain), as previously described for H23R and H460R variants The additional 11 human cell lines, PC-3, LNCAP, H727, HT29, A549, BT474, LoVo, IMIM-PC-2, SKOV3, SW780 and IMR90, were used for further validations. For viability assays cells were treated with increasing doses of CDDP. The epigenetic reactivation drugs 5Aza-2deoxycytidine (5Aza-dC) and trichostatin A (TSA) (Sigma-Aldrich, Spain) were used at […] and at 300nM respectively.

LoVo cells = experiment: Viability to CDDP; assay type: cell-based, human
Source text: as §1

NRF2 = experiment: Semiquantitative RT-PCR expression after cisplatin treatment; assay type: cell-based, human
Experimental: (§2) For semiquantitative RT-PCR, 500 ng of total RNA isolated from cell lines was used for RT reaction using PrimeScript™ RT Master (Clontech-Takara, USA) and subsequent semiquantitative PCR using Promega PCR Mix (Promega, USA) as previously described. Relative quantification was performed by measuring the intensity of band amplified using ImageJ software. Primers for HMOX1 (F: 5′-[…]-3′; R: 5′-[…]-3′), MAFG (F: 5′-[…]-3′; R: 5′-[…]-3′) and GAPDH (F: 5′-GAGAGACCCTCACTGCTG-3′; R: 5′-[…]-3′) were designed to include the probe from the array in order to assure the correct transcript identification.

[1] = test system: A2780 ovarian cancer cells; experiment: ROS production after CDDP exposure, ovarian cells; assay type: cell-based, human
Experimental: FIG. 3. Viability assays and Reactive Oxygenated Species detection after CDDP treatment in A2780 cell lines. (A) Viability to CDDP in A2780S (left) and A2780R (right) at 24, 48 and 72 hours and 6 concentrations of CDDP measured by MTT assay. (B) Increment of ROS production in A2780S (left) and A2780R (right) after 24, 48 and 72 hours of CDDP treatment. $: 72h (vs Basal).
H23/A2780 cells were cultured in 96-well black plates at density of 10,000 cells/well. Cells were treated with 6 different doses of CDDP for 24, 48 and 72 h in RPMI containing 10% FBS. Then treatments were removed and cells were loaded with the fluorescent probe 2′,7′-dichlorodihydrofluorescein diacetate (H2DCFDA) (10 μM) for 45 minutes in RPMI medium (FBS free). Cells were washed twice with RPMI (10% FBS), and fluorescence was recorded in a Fluostar Optima, each hour, over 4 hours period. […] ROS production was calculated dividing the mean H2DCFDA fluorescence by the mean viability. […] All experiments included cells treated with RPMI alone (Basal), and one well without cells as fluorescence basal.
H23/A2780 cells were cultured in 96-well black plates at density of 10,000 cells/well. […] Cells were washed twice with RPMI (10% FBS), and fluorescence was recorded in a Fluostar Optima at 520 nm after excitation at 485 nm. […] ROS production was calculated dividing the mean H2DCFDA fluorescence by the mean viability. […]

H1299 cells = experiment: Expression of MAFG and HMOX1 in cells carrying the aptamer; assay type: cell-based, human; settings: cells carrying apMAFG6F
Experimental: as §2

MAFG-Myc = target: T1, MAFG-Myc (Homo sapiens, UniProt O15525); experiment: Enzyme-linked oligonucleotide assay (ELONA) of aptamers and aptamer populations; assay type: binding
T1 construct: Myc (C); DDK (FLAG)
Experimental: FIG. 4. Analysis of the affinity of the aptamers against MAFG. (A) Quantification of aptamer-MAFG complexes by qPCR comparing absence (dot pattern) or presence (filled pattern) of MAFG protein. […] Bars represent the mean±SEM of 2-3 experiments (B) Specificity binding assay of aptamers to MAFG performed by ELONA. MAFG-myc was plated at 50ng/well in 96-well plates followed by incubation with 5′ digoxigenin-labeled aptamers from RND40, SEL3MAFG and SEL6MAFG. The figure represents the mean±SEM of 3 independent experiments. p<0.01. (C) Aptacytochemistry in HEK-293T cells transiently transfected with MAFG-myc. Cells overexpressing MAFG were incubated with 5′ Alexafluor 488-conjugated aptamers from RND40, SEL3MAFG or SEL6MAFG (upper panel) or Myc antibody (lower panel). Confocal microscopy images corresponding to the staining of nuclei with Hoechst (blue), antibodies (red), and aptamers (green) are shown. Arrowhead indicates positive cells. Bar=13 μm. (D) Study of individual aptamers affinity performed by ELONA. Recombinant MAFG was plated at 50 ng/well in 96-well plates followed by incubation with 5′ digoxigenin-labeled individual aptamers apMAGF3F, apMAFG6F and apMAFG11F. The figure represents the mean±SD of 2 independent experiments. (E) Secondary structures of aptamers apMAGF3F, apMAFG6F and apMAFG11F obtained by bioinformatics sequence analysis using the mFold software taking into account the lower free energy (AG).
(ii) Enzyme-linked oligonucleotide assay (ELONA): Aptamers were labeled by PCR using 5′ digoxigenin-labeled F3/5′ digoxigenin-labeled R3 primers (IBA Life Sciences). To assess the enrichment of the selected population and the affinity of the individual aptamers for the target, MAFG-Myc (50 ng) was incubated with the rounds 3, 6 of aptamers or the RND40 library. OD405nm values were determined using a SpectraFluor microplate reader (TECAN, Barcelona, Spain).

T1 sequence (O15525 whole entry): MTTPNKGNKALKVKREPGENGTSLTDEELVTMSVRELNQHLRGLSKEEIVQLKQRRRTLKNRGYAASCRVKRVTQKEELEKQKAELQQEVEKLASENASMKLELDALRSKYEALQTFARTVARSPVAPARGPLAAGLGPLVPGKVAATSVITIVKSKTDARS

## [NH2][Pt]([NH2])([Cl])[Cl] [CDDP, Cisplatin]
IMIM-PC2 cells
  IC50 of CDDP: over 2 μg/ml
LoVo cells
  IC50 of CDDP: over 2 μg/ml
NRF2
  NRF2 expression after cisplatin treatment: did not changed
[1]
  differences in ROS production between sensitive and resistant cells: confirmed

B1: GCGGATGAAGACTGGTGTCGATGCATGTGTAGTGCATTTCGAGCCGTTCTATTGGTGTGCCCTAAATACGAGCAAC (nucleic acid)
chain: GCGGATGAAGACTGGTGTCGATGCATGTGTAGTGCATTTCGAGCCGTTCTATTGGTGTGCCCTAAATACGAGCAAC
modifications: chemistry not given here
notes: DNA aptamer selected against the MAFG protein by SELEX
H1299 cells
  HMOX1 expression: decrease
  MAFG expression: decrease
MAFG-Myc; Example 1, individual aptamers
  affinity against MAFG: high affinity
MAFG-Myc; Example 3, individual sequences from SEL6MAFG
  binding capacity to the target: high binding capacity to the target in the nanomolar range
MAFG-Myc; individual sequences from SEL6MAFG
  binding signal relative to BSA protein: four times that of the BSA protein
